Results reported in paper PMC10299496, “Effect of Chemical Chaperones on the Stability of Proteins during Heat– or Freeze–Thaw Stress” (International Journal of Molecular Sciences, 2023).
“And” between values parts separate entries of the source, which are not always exact repeats. Equal values may be shown once.

B1: Glutamate dehydrogenase from bovine liver (enzyme)
chain: not shown
notes: glutamate dehydrogenase, bovine liver; homohexamer of six identical subunits of 56-57 kDa; also called GDH; GDHfr (frozen-thawed GDH)
B2: Glycogen phosphorylase b from rabbit skeletal muscle (enzyme, UniProt P00489 1-843, looked up)
chain: MSRPLSDQEKRKQISVRGLAGVENVTELKKNFNRHLHFTLVKDRNVATPRDYYFALAHTVRDHLVGRWIRTQQHYYEKDPKRIYYLSLEFYMGRTLQNTMVNLALENACDEATYQLGLDMEELEEIEEDAGLGNGGLGRLAACFLDSMATLGLAAYGYGIRYEFGIFNQKICGGWQMEEADDWLRYGNPWEKARPEFTLPVHFYGRVEHTSQGAKWVDTQVVLAMPYDTPVPGYRNNVVNTMRLWSAKAPNDFNLKDFNVGGYIQAVLDRNLAENISRVLYPNDNFFEGKELRLKQEYFVVAATLQDIIRRFKSSKFGCRDPVRTNFDAFPDKVAIQLNDTHPSLAIPELMRVLVDLERLDWDKAWEVTVKTCAYTNHTVLPEALERWPVHLLETLLPRHLQIIYEINQRFLNRVAAAFPGDVDRLRRMSLVEEGAVKRINMAHLCIAGSHAVNGVARIHSEILKKTIFKDFYELEPHKFQNKTNGITPRRWLVLCNPGLAEIIAERIGEEYISDLDQLRKLLSYVDDEAFIRDVAKVKQENKLKFAAYLEREYKVHINPNSLFDVQVKRIHEYKRQLLNCLHVITLYNRIKKEPNKFVVPRTVMIGGKAAPGYHMAKMIIKLITAIGDVVNHDPVVGDRLRVIFLENYRVSLAEKVIPAADLSEQISTAGTEASGTGNMKFMLNGALTIGTMDGANVEMAEEAGEENFFIFGMRVEDVDRLDQRGYNAQEYYDRIPELRQIIEQLSSGFFSPKQPDLFKDIVNMLMHHDRFKVFADYEEYVKCQERVSALYKNPREWTRMVIRNIATSGKFSSDRTIAQYAREIWGVEPSRQRLPAPDEKIP
notes: glycogen phosphorylase b (muscle form), rabbit skeletal muscle; dimer of two identical subunits of 97.4 kDa; also called Phb; Phbfr (frozen-thawed Phb)

Columns and labels:
[1] = target: the molecule itself; assay: AUC; sedimentation velocity, c(M) distributions; GDH 0.2 mg/mL pre-heated 10 min at 50 °C with or without HPCD, Sorb, Tre or Bet, then cooled; run at 25 °C, 48,000 rpm, 0.1 M Na-phosphate pH 7.6, 0.01 M NaCl
[2] = target: the molecule itself; assay: AUC; sedimentation velocity, c(M) distributions; Phb 0.35 mg/mL pre-heated 40 min at 48 °C with or without HPCD, Tre or Bet, cooled 2 min in ice water; run at 25 °C, 48,000 rpm, 0.03 M HEPES pH 6.8, 0.15 M NaCl

Protein | stoichiometry N [1] | stoichiometry N [2]
B1 | 6 and 2 | –
B2 | – | 2 and 4
